Sequences and labels used below:
T1: recombinant human activated Factor VII (FVIIa) (human, UniProt P08709 61-212; P08709 213-466, ten glutamate residues of the Gla domain may be gamma-carboxylated)
T1 construct: chains tethered by a disulfide bond; also called Factor VIIa; rFVIIa
T1 sequence 1: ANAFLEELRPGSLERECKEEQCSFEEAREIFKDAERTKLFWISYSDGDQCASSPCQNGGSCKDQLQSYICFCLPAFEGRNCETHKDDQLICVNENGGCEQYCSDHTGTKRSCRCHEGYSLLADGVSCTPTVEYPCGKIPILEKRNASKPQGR
T1 sequence 2: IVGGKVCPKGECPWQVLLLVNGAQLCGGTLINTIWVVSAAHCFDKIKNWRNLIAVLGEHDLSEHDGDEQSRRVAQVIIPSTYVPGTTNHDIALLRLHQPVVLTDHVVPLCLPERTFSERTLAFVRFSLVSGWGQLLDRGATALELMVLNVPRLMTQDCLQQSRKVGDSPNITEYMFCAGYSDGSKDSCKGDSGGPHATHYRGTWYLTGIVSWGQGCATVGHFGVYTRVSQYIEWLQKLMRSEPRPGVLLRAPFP

B1: VH SEQ ID NO 626 / VL SEQ ID NO 446 (antibody, IgG4, V domains shown)
VH: QVQLQESGPGLVKPSQTLSLTCTVSGYSISSDSAWSWIRQPPGKGLEWIGYIQYSGSTNYNPSLKSRVTISRDTSKNQFSLKLSSVTAADTAVYYCARSVNYYGNSFAVGPWGQGTLVTVSS
VL: EIVLTQSPATLSLSPGERATLSCRASQGVSDYLAWYQQKPGQAPRLLIKYTSQPATGIPARFSGSGSGTDFTLTISSLEPEDFAVYYCQNGHSFPLTFGQGTKLEIK
notes: humanized 11F2; IgG4 S228P/kappa
B2: VH SEQ ID NO 626 / VL SEQ ID NO 478 (antibody, IgG4, V domains shown)
VH: QVQLQESGPGLVKPSQTLSLTCTVSGYSISSDSAWSWIRQPPGKGLEWIGYIQYSGSTNYNPSLKSRVTISRDTSKNQFSLKLSSVTAADTAVYYCARSVNYYGNSFAVGPWGQGTLVTVSS
VL: EIVLTQSPATLSLSPGERATLSCRASQGVSDYLHWYQQKPGQAPRLLIKYASQPATGIPARFSGSGSGTDFTLTISSLEPEDFAVYYCQQGHSFPLTFGQGTKLEIK
notes: as for B1
B3: VH SEQ ID NO 634 / VL SEQ ID NO 310 (antibody, IgG4, V domains shown)
VH: QVQLQESGPGLVKPSQTLSLTCTVSGYSISSDSAWSWIRQPPGKGLEWIGYIQYSGSTNYNPSLKSRVTISRDTSKNQFSLKLSSVTAADTAVYYCARSVNYYGNSFAVGYWGQGTLVTVSS
VL: EIVLTQSPATLSLSPGERATLSCRASQGISDYLAWYQQKPGQAPRLLIKYASQPATGIPARFSGSGSGTDFTLTISSLEPEDFAVYYCQNGHSFPLTFGQGTKLEIK
notes: as for B1
B4: VH SEQ ID NO 626 / VL SEQ ID NO 494 (antibody, IgG4, V domains shown)
VH: QVQLQESGPGLVKPSQTLSLTCTVSGYSISSDSAWSWIRQPPGKGLEWIGYIQYSGSTNYNPSLKSRVTISRDTSKNQFSLKLSSVTAADTAVYYCARSVNYYGNSFAVGPWGQGTLVTVSS
VL: EIVLTQSPATLSLSPGERATLSCRASQGVSDYLHWYQQKPGQAPRLLIKYASQPATGIPARFSGSGSGTDFTLTISSLEPEDVAVYYCQNGHSFPLTFGQGTKLEIK
notes: as for B1
B5: VH SEQ ID NO 626 / VL SEQ ID NO 462 (antibody, IgG4, V domains shown)
VH: QVQLQESGPGLVKPSQTLSLTCTVSGYSISSDSAWSWIRQPPGKGLEWIGYIQYSGSTNYNPSLKSRVTISRDTSKNQFSLKLSSVTAADTAVYYCARSVNYYGNSFAVGPWGQGTLVTVSS
VL: EIVLTQSPATLSLSPGERATLSCRASQGVSDYLHWYQQKPGQAPRLLIKYASQPATGIPARFSGSGSGTDFTLTISSLEPEDFAVYYCQNGHSFPLTFGAGTKLEIK
notes: as for B1
B6: VH SEQ ID NO 626 / VL SEQ ID NO 486 (antibody, IgG4, V domains shown)
VH: QVQLQESGPGLVKPSQTLSLTCTVSGYSISSDSAWSWIRQPPGKGLEWIGYIQYSGSTNYNPSLKSRVTISRDTSKNQFSLKLSSVTAADTAVYYCARSVNYYGNSFAVGPWGQGTLVTVSS
VL: EIVLTQSPATLSLSPGERATLSCRASQGVSDYLHWYQQKPGQAPRLLIKYASQPATGIPARFSGSGSGTDFTLTISSLEPEDFGVYYCQNGHSFPLTFGQGTKLEIK
notes: as for B1
B7: VH SEQ ID NO 626 / VL SEQ ID NO 502 (antibody, IgG4, V domains shown)
VH: QVQLQESGPGLVKPSQTLSLTCTVSGYSISSDSAWSWIRQPPGKGLEWIGYIQYSGSTNYNPSLKSRVTISRDTSKNQFSLKLSSVTAADTAVYYCARSVNYYGNSFAVGPWGQGTLVTVSS
VL: EIVLTQSPATLSLSPGERATLSCRASQGVSDYLHWYQQKPGQAPRLLIKYTSQPATGIPARFSGSGSGTDFTLTISSLEPEDFAVYYCQNGHSFPLTFGQGTKLEIK
notes: as for B1
B8: VH SEQ ID NO 626 / VL SEQ ID NO 454 (antibody, IgG4, V domains shown)
VH: QVQLQESGPGLVKPSQTLSLTCTVSGYSISSDSAWSWIRQPPGKGLEWIGYIQYSGSTNYNPSLKSRVTISRDTSKNQFSLKLSSVTAADTAVYYCARSVNYYGNSFAVGPWGQGTLVTVSS
VL: EIVLTQSPATLSLSPGERATLSCRASQGVSDYLHWYQQKPGEAPRLLIKYASQPATGIPARFSGSGSGTDFTLTISSLEPEDFAVYYCQNGHSFPLTFGQGTKLEIK
notes: as for B1

Among the data in US20220064329A1 (Novo Nordisk, published 2022) are Kd values, retold here.

One may read the Kd as the constant that tells how readily two partners part at equilibrium.

This assay has as its target T1, recombinant human activated Factor VII …. Description: BLI (Fortebio).
As to B1, the Kd amounted to 880 nM. As to B2, the Kd is 2.5 nM. Turning to B3, the dissociation constant Kd was 2.1 nM. For B4, the Kd came out at 1.8 nM. Regarding B5, the Kd amounted to 1.4 nM. As for B6, the Kd was found to be 1.6 nM. For B7, the Kd is 1.8 nM. The result for B8 reads 1.4 nM.
